PMC3042207 (British Journal of Pharmacology, 2011)
“And” between values parts separate entries of the source, which are not always exact repeats. Equal values may be shown once. Read-outs that look alike come from different tables or passages of the source.

Assays:
CYP2C8 = conditions: ref Ong et al., 2000; cited from earlier work
[1] = system: human liver microsomes (HLM); test: CYP inhibition: 4-HPR metabolite formation in HLM with CYP inhibitors; format: in vitro ADME; conditions: HLM + 4-HPR; inhibitor alone at 100 µM
[2] = substrate: CC1=C(/C=C/C(C)=C/C=C/C(C)=C/C(=O)Nc2ccc(O)cc2)C(C)(C)CCC1; test: Metabolism of 4-HPR by CYP3A5 supersomes; format: in vitro ADME, human; conditions: other: CYP3A5 supersomes; 4-HPR 0-20 µM, 3 h; 37.0 °C
[3] = substrate: CC1=C(/C=C/C(C)=C/C=C/C(C)=C/C(=O)Nc2ccc(O)cc2)C(C)(C)CCC1; test: Metabolism of 4-HPR by CYP2C8 supersomes; format: in vitro ADME, human; conditions: other: CYP2C8 supersomes; 4-HPR 0-20 µM, 3 h; 37.0 °C
[4] = substrate: CC1=C(/C=C/C(C)=C/C=C/C(C)=C/C(=O)Nc2ccc(O)cc2)C(C)(C)CCC1; format: in vitro ADME, human; conditions: other: CYP2C8*3, E. coli membranes; 4-HPR 0-20 µM, 3 h; pH 5.0
[5] = substrate: CC1=C(/C=C/C(C)=C/C=C/C(C)=C/C(=O)Nc2ccc(O)cc2)C(C)(C)CCC1; test: Glucuronidation of 4-HPR by UGT 1A1 supersomes; format: in vitro ADME, human; conditions: other: UGT 1A1, 1 mg·mL^−1; 4-HPR 0-2000 µM, 3 h; 37.0 °C
[6] = substrate: CC1=C(/C=C/C(C)=C/C=C/C(C)=C/C(=O)Nc2ccc(O)cc2)C(C)(C)CCC1; test: Glucuronidation of 4-HPR by UGT 1A3 supersomes; format: in vitro ADME, human; conditions: other: UGT 1A3, 1 mg·mL^−1; 4-HPR 0-2000 µM, 3 h; 37.0 °C
[7] = substrate: CC1=C(/C=C/C(C)=C/C=C/C(C)=C/C(=O)Nc2ccc(O)cc2)C(C)(C)CCC1; test: Glucuronidation of 4-HPR by UGT 1A6 supersomes; format: in vitro ADME, human; conditions: other: UGT 1A6, 1 mg·mL^−1; 4-HPR 0-2000 µM, 3 h; 37.0 °C

## CC(=O)N1CCN(c2ccc(OCC3COC(Cn4ccnc4)(c4ccc(Cl)cc4Cl)O3)cc2)CC1 (centres unmarked) [Ketoconazole, ketoconazole]
CYP2C8
  concentrations at which CYP2C8 is markedly inhibited: > 10 µM

## COc1ccc2[nH]c([S+]([O-])Cc3ncc(C)c(OC)c3C)nc2c1 (centres unmarked) [Omeprazole, omeprazole]
[1]
  effect on production of 4′-OH 4-HPR and 4′-oxo 4-HPR, inhibitor alone: very little effect

B1: CYP3A5 (Homo sapiens) (protein)
chain: MDLIPNLAVETWLLLAVSLVLLYLYGTRTHGLFKRLGIPGPTPLPLLGNVLSYRQGLWKFDTECYKKYGKMWGTYEGQLPVLAITDPDVIRTVLVKECYSVFTNRRSLGPVGFMKSAISLAEDEEWKRIRSLLSPTFTSGKLKEMFPIIAQYGDVLVRNLRREAEKGKPVTLKDIFGAYSMDVITGTSFGVNIDSLNNPQDPFVESTKKFLKFGFLDPLFLSIILFPFLTPVFEALNVSLFPKDTINFLSKSVNRMKKSRLNDKQKHRLDFLQLMIDSQNSKETESHKALSDLELAAQSIIFIFAGYETTSSVLSFTLYELATHPDVQQKLQKEIDAVLPNKAPPTYDAVVQMEYLDMVVNETLRLFPVAIRLERTCKKDVEINGVFIPKGSMVVIPTYALHHDPKYWTEPEEFRPERFSKKKDSIDPYIYTPFGTGPRNCIGMRFALMNMKLALIRVLQNFSFKPCKETQIPLKLDTQGLLQPEKPIVLKVDSRDGTLSGE
[2]
  Km: 19.1 ± 5.0 µM

B2: CYP2C8 (Homo sapiens) (protein)
chain: MEPFVVLVLCLSFMLLFSLWRQSCRRRKLPPGPTPLPIIGNMLQIDVKDICKSFTNFSKVYGPVFTVYFGMNPIVVFHGYEAVKEALIDNGEEFSGRGNSPISQRITKGLGIISSNGKRWKEIRRFSLTTLRNFGMGKRSIEDRVQEEAHCLVEELRKTKASPCDPTFILGCAPCNVICSVVFQKRFDYKDQNFLTLMKRFNENFRILNSPWIQVCNNFPLLIDCFPGTHNKVLKNVALTRSYIREKVKEHQASLDVNNPRDFIDCFLIKMEQEKDNQKSEFNIENLVGTVADLFVAGTETTSTTLRYGLLLLLKHPEVTAKVQEEIDHVIGRHRSPCMQDRSHMPYTDAVVHEIQRYSDLVPTGVPHAVTTDTKFRNYLIPKGTTIMALLTSVLHDDKEFPNPNIFDPGHFLDKNGNFKKSDYFMPFSAGKRICAGEGLARMELFLFLTTILQNFNLKSVDDLKNLNTTAVTKGIVSLPPSYQICFIPV
[3]
  Km: 5.0 ± 3.1 µM and 2.2 ± 1.1 µM

B3: CYP2C8*3 (Homo sapiens; K399R/R139K) (protein)
chain: MEPFVVLVLCLSFMLLFSLWRQSCRRRKLPPGPTPLPIIGNMLQIDVKDICKSFTNFSKVYGPVFTVYFGMNPIVVFHGYEAVKEALIDNGEEFSGRGNSPISQRITKGLGIISSNGKRWKEIRRFSLTTLRNFGMGKKSIEDRVQEEAHCLVEELRKTKASPCDPTFILGCAPCNVICSVVFQKRFDYKDQNFLTLMKRFNENFRILNSPWIQVCNNFPLLIDCFPGTHNKVLKNVALTRSYIREKVKEHQASLDVNNPRDFIDCFLIKMEQEKDNQKSEFNIENLVGTVADLFVAGTETTSTTLRYGLLLLLKHPEVTAKVQEEIDHVIGRHRSPCMQDRSHMPYTDAVVHEIQRYSDLVPTGVPHAVTTDTKFRNYLIPKGTTIMALLTSVLHDDREFPNPNIFDPGHFLDKNGNFKKSDYFMPFSAGKRICAGEGLARMELFLFLTTILQNFNLKSVDDLKNLNTTAVTKGIVSLPPSYQICFIPV
[4]
  Km: 18.8 ± 8.3 µM and 8.6 ± 2.5 µM

B4: UGT 1A1 (Homo sapiens) (protein)
chain: HAGKILLIPVDGSHWLSMLGAIQQLQQRGHEIVVLAPDASLYIRDGAFYTLKTYPVPFQREDVKESFVSLGHNVFENDSFLQRVIKTYKKIKKDSAMLLSGCSHLLHNKELMASLAESSFDVMLTDPFLPCSPIVAQYLSLPTVFFLHALPCSLEFEATQCPNPFSYVPRPLSSHSDHMTFLQRVKNMLIAFSQNFLCDVVYSPYATLASEFLQREVTVQDLLSSASVWLFRSDFVKDYPRPIMPNMVFVGGINCLHQNPLSQEFEAYINASGEHGIVVFSLGSMVSEIPEKKAMAIADALGKIPQTVLWRYTGTRPSNLANNTILVKWLPQNDLLGHPMTRAFITHAGSHGVYESICNGVPMVMMPLFGDQMDNAKRMETKGAGVTLNVLEMTSEDLENALKAVINDKSYKENIMRLSSLHKDRPVEPLDLAVFWVEFVMRHKGAPHLRPAAHDLTWYQYHSLDVIGFLLAVVLTVAFITFKCCAYGYRKCLGKKGRVKKAHKSKTH
[5]
  Km: 716 ± 87 µM

B5: UGT 1A3 (Homo sapiens) (protein)
chain: GKVLVVPIDGSHWLSMREVLRELHARGHQAVVLTPEVNMHIKEENFFTLTTYAISWTQDEFDRHVLGHTQLYFETEHFLKKFFRSMAMLNNMSLVYHRSCVELLHNEALIRHLNATSFDVVLTDPVNLCAAVLAKYLSIPTVFFLRNIPCDLDFKGTQCPNPSSYIPRLLTTNSDHMTFMQRVKNMLYPLALSYICHAFSAPYASLASELFQREVSVVDILSHASVWLFRGDFVMDYPRPIMPNMVFIGGINCANRKPLSQEFEAYINASGEHGIVVFSLGSMVSEIPEKKAMAIADALGKIPQTVLWRYTGTRPSNLANNTILVKWLPQNDLLGHPMTRAFITHAGSHGVYESICNGVPMVMMPLFGDQMDNAKRMETKGAGVTLNVLEMTSEDLENALKAVINDKSYKENIMRLSSLHKDRPVEPLDLAVFWVEFVMRHKGAPHLRPAAHDLTWYQYHSLDVIGFLLAVVLTVAFITFKCCAYGYRKCLGKKGRVKKAHKSKTH
[6]
  Km: 389 ± 53 µM

B6: UGT 1A6 (Homo sapiens) (protein)
chain: DKLLVVPQDGSHWLSMKDIVEVLSDRGHEIVVVVPEVNLLLKESKYYTRKIYPVPYDQEELKNRYQSFGNNHFAERSFLTAPQTEYRNNMIVIGLYFINCQSLLQDRDTLNFFKESKFDALFTDPALPCGVILAEYLGLPSVYLFRGFPCSLEHTFSRSPDPVSYIPRCYTKFSDHMTFSQRVANFLVNLLEPYLFYCLFSKYEELASAVLKRDVDIITLYQKVSVWLLRYDFVLEYPRPVMPNMVFIGGINCKKRKDLSQEFEAYINASGEHGIVVFSLGSMVSEIPEKKAMAIADALGKIPQTVLWRYTGTRPSNLANNTILVKWLPQNDLLGHPMTRAFITHAGSHGVYESICNGVPMVMMPLFGDQMDNAKRMETKGAGVTLNVLEMTSEDLENALKAVINDKSYKENIMRLSSLHKDRPVEPLDLAVFWVEFVMRHKGAPHLRPAAHDLTWYQYHSLDVIGFLLAVVLTVAFITFKCCAYGYRKCLGKKGRVKKAHKSKTH
[7]
  Km: 422 ± 46 µM
